system: Saccharomyces cerevisiae; test: transcriptional activation domain activity (GFP:mCherry ratio, weighted mean of sorted bins, harmonized to initial dataset scale) (arbitrary fluorescence ratio units); higher = stronger transcriptional activation; conditions: beta-estradiol 1 µM; induction time 4 h
In short: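 After a 1:5 dilution into SC with 1 uM beta-estradiol and 4 hours at 30 °C, yeast diploids carrying a GFP reporter and URA3-integrated barcoded tiles were sorted into 8 bins by GFP:mCherry ratio. The tiles were fused to an estradiol-inducible synthetic transcription factor. Barcodes were sequenced, tiles below 50 reads were discarded, and activation activity was taken as the read-weighted mean of bin median fluorescence, averaged across barcodes and linearly mapped onto the initial dataset scale.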

Point of comparison: “ESEKAGGKRKQERRSRAGRGEGEGEERENRCRGEEGRGREGGGRREGKEGVGG”, “transcriptional activation domain activity” value 39400. Against it:
- MLHPTIVYPFITHLLLLILLFSLLPRFSYDADMDFLLVFSSFVLLLCFPWFED — higher, 40400
- PSRPATPPRSSSAPTGISPNPRTRTCSSASCCASSRSPPSTTSPPTPPAAAAP — higher, 51100
- DGWGDGGLRAGALEEVQRRAEEMRGRLRLDEEARLYFSRSGNRLVRVVIILVG — lower, 7180
- RGTIRPGFLIYFFILFLWVFQIHCIMQIIVNRIALLHVSPTIVRRLKWGIFSI — higher, 66300
- REGGRRGRGRARSRRQGGKREERGRTRKGRKGGENRPKREGGQGGGERARRRE — higher, 41300
- ELRNHMSAIIDICWGACGTYKGVELWLEWDRNDNVPFHDSLWRVVRFVIFVNH — higher, 63200
- LFLFFLFVFCAYPFWLVRCFLLALLLSLKDLVQIFLFLITTLCCDISEMWSFV — higher, 42800
- EVMKIMPVQKQTRAGQRTRFKAFVVIGDSEGHVGLGVKCAKEVATAIRGAIIL — higher, 56900
- AWPLHLTLGKIPKSIRYQDYHRACRVLAYFPIIHVKGGIIRPAWWWSHCKKLI — lower, 36300
- MAFLYLELPLVGMTFGGGRRGWGFMYLFLFLSFSFFFIQLWFGLVWVMTLCEV — higher, 63600
- NVRLQVDQCAFVLEHCADATPGLINYIQWYYCSSTKPIVFILMCFWLLFLFGF — higher, 40400
- SHDTFPLRPILVKLLCHAMLMKGVDPVSIIEKQPMTYGFVADILLPLVLDLPS — higher, 62200
- VSVSLIFFTCFLSLSLFFCVLVRVSWLSVPVPSIVFFWISFLLFCPFFPFSFF — lower, 35700
- MDAYFFFVFLSFLFFYIFFLLFSILLLFSFYFLCSGVHNMCFLVGVWLWSRGG — lower, 35800
- SQVIKILTLLFFFLNLLFFVLICAATVARYCMFPQLWPIMLNHPSQSLFIGAF — higher, 60600
- MITQILYLDLLHPLHCHFFFFFSFFSSLIVVSVIITRLYFFFFSHLVIFCPFL — higher, 54600
- QFSWNVCFMVFLFLFLFLFLCFVCFTLLCLSKMLHNVLHYNFILCFLSSFCFV — higher, 52400
- SGADEFDVGASIEPTFATPRLTRTSETGTSESTSRRPSERSRSRARVLGLPVG — lower, 38500
- FLFFFFLLLFLLYSSLPLPPFLYPSLPLCRFSLFYYYLLLWFHFPCFSPFFLF — higher, 57900
- RNGKRTRNARKLRKPRRSRRRGEEKKKPNASALKRQRRREKKQEEELRRKQKR — higher, 47800
- RRDVTLMGGLCLHTIQGAYLAACAYFVVPFSLVVSLGFEALLLLFCFIFIFIF — higher, 50400
- AINFWFFLTVYYGFYNLVGLLWITKIFNMYSLNWWPPQLGFPPTFTFFSCFPL — higher, 51500
- MDASSPTSSSAKTPHNKGPRACATCARAKSRCIAGPDGAAGNCERCHRLKKPC — lower, 9040
- EEREEEKEEEKEEKEQEKKKEEETRRRIRSRKRRGARRRETMRKTSQRGNRKK — lower, 25200
- SSSSQTSTSASVLLVFGSDERYVKAAGDLLKSRLNVKGGGKGTRWSGKYTGVW — lower, 31200
- MNQSPDDTGGEDQTTAPSWRACDNCRARKIKCDKRSPCSNCRVSNAICRTAKK — lower, 30600
- VNLHRARLRSCLDIIHLHIALGSTKRGLERVFELRRMLVSLLALHPFFRPTST — higher, 46100
- LLYLCRDILMAVFAWSLAIQIDPFFTNVVIRSILSPTIAKTFRWMSWCVYWWF — higher, 57700
- MIFFLPLVFTSFFFIFFYMYYTVWTLHLSFVKSLEACMNPWIWELYGSTFIHL — higher, 60000
- STSIRWEIFYARFFIMMLFYTIVGLFLTIACFSLRYHLFIWTVFSPKLLFFFV — higher, 48800
- MADATATGSTPPQAPLPEPKRHAACDECRLRKLKCSGTRPACERCAREHIACV — higher, 40100
- ETVEEPAPKRGKATRTKAAEPAPVEEAPKPAAKPRGRAAAKKATEPAAEAEVE — lower, 35500
- KKAKKGGDEAGAKGSGKPKKPAGEADGSVAAEGGAAKGKARKAASSEPKKGAK — lower, 27900
- MCVWELVLVLVVWCFRCFSFFHPLHFLPWLLYPSPLISLFFCLFYPLLFFVFF — lower, 37900
- MGFLLLLLILVFFFVLYLFYSFLFFFSFHWACCILYDMWEKERVELYLLLLLL — higher, 42800
- ILVLIVSNLRLMIENFRKYGVLICIRCHDYRRQDVVYGSILYFLVPCHLFVAY — higher, 51300
- MCRFFIFLLSFLYDISVPILVFWSVHSPLLGWLFPGGGYTWRCLFFLCFLVYM — higher, 51400
- GNTVAIFVPFWEYCVLFPSELRIWKRMLRARPFRWHFAPIMTIILRYLLIIFA — higher, 45200
- NGLLRDVHVVFQDSSFCARLTEQIRRRLRMISSNWRETCCMEMLITLSLRLFH — higher, 45100
- FLARLESLHRALGLYLWFSYRYPNIIISQALAFHAKSMLEAKIDDLLQKMSFD — higher, 44300
- VLLLVIFACAIVYLKSLVYSPSPFPTLIACYMSHSNRRYLSVMYGVVLVHQIT — higher, 75600
- AAEPAPEPVVEKAPAPKKRAGRQPKAETVVEDAPAPKKRGRGARKSEPAAVAE — lower, 21000
- PTASTIYEEAESQSSYLDDMFRTSQGGRPVTQNSISSIGQGPLRSSYSMAYDS — higher, 51300
- KADDEKPKKAARGAKAKKEEDEDEEADEEQEEPKKPARKPRAKAEPKKAPAKS — lower, 23100
- TNNEFEGESDDFVHSPYLNSEADFSQILSSAPPVHHDPNETHQENQDIIDRFA — higher, 66800
- GHGSSDGGRPPAKRARKAINCEPCRSSKLKCDRNRPCSSCVLRGTAAQCYPGS — lower, 38800
- KVGFVLIFLFALLVFTSIICSPIYVFSVPYSSICISLQVHRCCLFYGAVIWFV — lower, 31300
- MTTLYISFLFFLFCASFTFCTIFFFFFFFFTQWLYSSPLHLSLSLSLLFLFLI — higher, 65100
- EAAAAAKRKRRKATSDSPEQARRGHVARKTAVACNFCRGRKLRCNGAKPSCSN — lower, 22800
- EPAETPAETPAPVEPVVEEKKEETPAPVKETPAPTPNPAAAPAPQQQQPAAAK — lower, 26400
- LNVQLVYLIHSVLSIVIDFTFKRVEGDMDEWVVSGFSDRFERRITFARLYCNK — higher, 49000
- KARQDKEPAMTQKDLATKINEKPSVINDYESGRAIPNQQVLGKLERALGVKLR — higher, 40000
- RIRKFTVLGATIVEPFMECVLNGVLGAFGFWVFFGVPRLWFFGWHLCYWLLVD — higher, 86000
- MRHVASRWPILPRLLVPIFHLLAWFLIPVGRLCIRSFPLIFSVVCFLCAFSSC — higher, 51100
- ADIICMIYLIVNYTLLVFVSEVPYHQRARICLRLFCSCNFVTNFYATSAIVYR — higher, 51100
- MEGLVVCSVWIFSCVWSLWLALCIWIFCLFVGVWLVRIWRGPGLYLLFFFFFL — higher, 71000
- GTGEEEEETTKHIVRKRGGGRGGRGKQESEQEWESEEEEEGTGEEEETTKQRT — lower, 39000
- MGTLLLVFMHYGWTFFLDCCLWWYMMSLGFWYKVCLPLLLLDFHVYCHLWYMI — higher, 53600
- KEDILLTLYENSTFGGLWSKLSDCLTVIRQRGNMLNIATILLPLIEALMVVCK — higher, 54700
- MRWTSTISFFLLPLGFFFSFHPFHIPFSTFLVSFEICIFFLSFFFSFLPIFLF — higher, 58500
- FILGLIFVFAFVWHERSMAACPLIPIKAMTAQATFVLVCTATGWASFSIWIYY — higher, 60700
- EKKRKRTEEEDAPKLKKKKTKSDLKRDSGGSSQEDSEAPAKKKKSSKSKKAKK — lower, 35800
- RSEKRSEERSSRSGPTDRVEGQERGSDRERGREKRGSDRESSRRDRGGEGERA — lower, 31700
- MVTVGILHYLLIGNLLTNVLFGVYVQMAWKCSCIFYRKYQMGQVHSYHLFSFI — higher, 80900
- VDRFKEFSHFLRRNENRTPSMIVLRRLCLDVSFLLCVVGFVRILWKRSGMRRR — higher, 62400
- ASIISQRSGIVRALSRLMIFDRKLRVKDTHLRRLQHRIVIQSLVFGAFFSCVG — higher, 54700
- SSSEEGSDGEEGDGEKDKDAKEKDGKDADGDVDMDADGKPKPKKAKPKKSTKK — lower, 31500
- IGLCYVIILAIICFQRIYVQPYLYGIEAYMNREICLCWLVLLSLNLSTLQFNQ — higher, 74300
- SSSTVVLAFGTDEKKIKEVGDALKTKLSVKGGGKGPRWSGKFAGVWKEDSAIE — lower, < 6570
- LLKLKMATKTNDIALYEHFIDMSLRFLPFWNMIVSYYLCLLLLFNTTHIIFIL — higher, 90500
- AHACIVLVVCEIDKTLGHSKHLLMIWLMRLLLLILNIMTIVGLFWSFLKCLDV — higher, 70900
- SHTAEPSDADGEGTRATRRAKTKSKSTGKSREAGKRSNGARKGGGRADSGGKD — higher, 46800
- LGIRSILETAYRINRLTHMCLQHLLTRCNNLEPLELVGSVLFFLDKKLKRPPE — higher, 50300
- IDHTDIHAHHADAHDDSFIESEEWLSKFIMDSQIDNDLKLNINHFNDIGFNNL — higher, 154000
- TDEAESKKAEEVPKTAEEAKPEESKAEETAMADETPKTEEAKPEDVKVEAHKE — lower, 19400
- LCRVQESILQTFGMTGLLCMQRGINFTIYCVLTCTVLHLVAITSPDPDLNRDA — higher, 40200
- QSFQTLLLILFLPPPLISPFLYVTFFFFPFFPFFFALPRFWDRWALSAFFFLL — higher, 49200
- EDCDFLGDDTCSIVNHINCQHGINFDIQFANPDSFLPGSISKEKHHLLHCPNP — higher, 77900
- REGRKKGREAREKRSGGKGGKGGKGKGRATDGAEGAEEGAAAGARQPNGRNAK — lower, 22200
- GKRAGAKGKKEASKKKKSQGSSRKGSGKGKKGNGGKGKNGGGKDKGKKSGKKG — lower, 21800
- HSRSPSRHRRRSYSRSRRYDSRSPRRRRSGSPSRRIVDEEEAAVTDGFIRAVA — lower, 37300
- VVALVADPEFQRELAYVLCGQSILVRWPAKILNGLWLYCHLLQQAILPWFIFY — higher, 52600

Source: the supplement of paper PMC12636428
